In patent US20050169843A1:
Values belong to the molecule of their own block, whether it stands above or below them. Primed or numbered codes have the meaning given here. FITC′ = fluorescein isothiocyanate label

Legend:
[1] = test system: T1, Gly-Pro-Leu-Gly-Val-Arg-Gly-Lys(FITC)-Cys-NH2 (MMP-2 peptide substrate)
T1 sequence: GPLGVRGKC

[2] = test system: T2, Gly-Val-Arg-Leu-Gly-Pro-Gly-Lys(FITC)-Cys-NH2 (scrambled control peptide)
T2 sequence: GVRLGPGKC

[3] = target: thrombin; experiment: cell-based or functional assay
[4] = test system: T3, Gly-D-Phe-Pip-Arg-Ser-Gly-Gly-Gly-Gly-Lys(FITC)-Cys-NH2 (thrombin substrate peptide)
T3 sequence: GFXRSGGGGKC

[5] = test system: T4, Gly-D-Phe-Pip-Arg-Pro-Gly-Gly-Gly-Gly-Lys(FITC)-Cys-NH2 (control peptide)
T4 sequence: GFXRPGGGGKC

[6] = test system: Cy-PL-MPEG at 20% fluorochrome loading (11 of 55 free amino groups labelled with Cy5.5)
[7] = target: MMP-2 (gelatinase 72 kD, Boehringer Mannheim), activated with p-aminophenyl mercuric acid; experiment: cell-based or functional assay
[8] = target: MMP-8 (human neutrophil granulocyte, Calbiochem), APMA activated (human) (UniProt P22894); experiment: cell-based or functional assay
[9] = target: MMP-9 (human recombinant protein purified from mammalian cells, Oncogene Research Products), APMA activated (human) (UniProt P14780); experiment: cell-based or functional assay
[10] = target: MMP-2 (human recombinant protein purified from mammalian cells, Calbiochem), APMA activated (human) (UniProt P08253); experiment: cell-based or functional assay
[11] = target: MMP-1 (human rheumatoid synovial fibroblast, Calbiochem), APMA activated (human) (UniProt P03956); experiment: cell-based or functional assay
[12] = target: T5, MMP-7 (human recombinant, E. Coli, Calbiochem), APMA activated (human) (UniProt P09237); experiment: cell-based or functional assay
T5 sequence (looked up): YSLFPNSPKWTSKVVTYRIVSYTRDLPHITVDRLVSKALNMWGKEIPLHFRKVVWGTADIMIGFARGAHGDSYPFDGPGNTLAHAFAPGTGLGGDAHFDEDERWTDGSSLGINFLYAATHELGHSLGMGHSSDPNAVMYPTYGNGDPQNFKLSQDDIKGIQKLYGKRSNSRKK

Chain of MMP-8 (human neutrophil granulocyte, Calbiochem), APMA activated (human) (P22894 101-467 limits assumed): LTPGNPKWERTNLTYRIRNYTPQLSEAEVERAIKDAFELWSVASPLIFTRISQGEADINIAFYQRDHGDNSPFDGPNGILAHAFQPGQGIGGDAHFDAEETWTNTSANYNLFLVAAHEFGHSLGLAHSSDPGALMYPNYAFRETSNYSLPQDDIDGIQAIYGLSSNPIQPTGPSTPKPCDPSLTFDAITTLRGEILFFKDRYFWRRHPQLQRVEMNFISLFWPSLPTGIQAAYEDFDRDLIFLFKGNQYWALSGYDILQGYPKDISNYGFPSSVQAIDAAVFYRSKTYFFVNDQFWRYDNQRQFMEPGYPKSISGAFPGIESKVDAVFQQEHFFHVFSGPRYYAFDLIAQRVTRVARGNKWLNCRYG
Chain of MMP-2 (human recombinant protein purified from mammalian cells, Calbiochem), APMA activated (human) (P08253 110-660 limits assumed): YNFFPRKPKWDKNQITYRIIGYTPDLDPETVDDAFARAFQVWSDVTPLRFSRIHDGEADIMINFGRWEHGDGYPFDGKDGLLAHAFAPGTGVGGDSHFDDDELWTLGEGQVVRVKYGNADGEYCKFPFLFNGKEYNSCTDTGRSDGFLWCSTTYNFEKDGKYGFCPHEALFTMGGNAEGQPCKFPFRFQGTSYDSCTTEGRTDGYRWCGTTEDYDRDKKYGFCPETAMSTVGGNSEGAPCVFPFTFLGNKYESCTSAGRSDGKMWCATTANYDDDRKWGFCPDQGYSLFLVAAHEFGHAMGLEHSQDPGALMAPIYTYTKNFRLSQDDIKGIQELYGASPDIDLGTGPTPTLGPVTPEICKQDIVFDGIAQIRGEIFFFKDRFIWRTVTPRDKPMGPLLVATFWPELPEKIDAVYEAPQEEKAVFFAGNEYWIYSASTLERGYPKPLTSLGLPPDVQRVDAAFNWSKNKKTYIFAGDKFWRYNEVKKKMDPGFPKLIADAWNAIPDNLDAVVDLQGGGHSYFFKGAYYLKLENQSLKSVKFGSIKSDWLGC
Chain of MMP-1 (human rheumatoid synovial fibroblast, Calbiochem), APMA activated (human) (P03956 100-469 limits assumed): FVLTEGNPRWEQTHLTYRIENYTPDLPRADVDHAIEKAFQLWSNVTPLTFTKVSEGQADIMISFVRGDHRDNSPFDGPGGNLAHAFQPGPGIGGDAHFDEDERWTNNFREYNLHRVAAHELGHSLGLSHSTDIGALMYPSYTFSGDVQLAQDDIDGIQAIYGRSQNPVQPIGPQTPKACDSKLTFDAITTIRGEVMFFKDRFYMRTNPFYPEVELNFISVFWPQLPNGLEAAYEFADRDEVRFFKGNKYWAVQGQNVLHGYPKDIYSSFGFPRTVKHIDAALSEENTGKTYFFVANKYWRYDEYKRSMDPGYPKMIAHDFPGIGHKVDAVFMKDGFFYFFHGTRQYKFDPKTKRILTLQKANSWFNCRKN
Chain of MMP-9 (human recombinant protein purified from mammalian cells, Oncogene Research Products), APMA activated (human) (P14780 107-707 limits assumed): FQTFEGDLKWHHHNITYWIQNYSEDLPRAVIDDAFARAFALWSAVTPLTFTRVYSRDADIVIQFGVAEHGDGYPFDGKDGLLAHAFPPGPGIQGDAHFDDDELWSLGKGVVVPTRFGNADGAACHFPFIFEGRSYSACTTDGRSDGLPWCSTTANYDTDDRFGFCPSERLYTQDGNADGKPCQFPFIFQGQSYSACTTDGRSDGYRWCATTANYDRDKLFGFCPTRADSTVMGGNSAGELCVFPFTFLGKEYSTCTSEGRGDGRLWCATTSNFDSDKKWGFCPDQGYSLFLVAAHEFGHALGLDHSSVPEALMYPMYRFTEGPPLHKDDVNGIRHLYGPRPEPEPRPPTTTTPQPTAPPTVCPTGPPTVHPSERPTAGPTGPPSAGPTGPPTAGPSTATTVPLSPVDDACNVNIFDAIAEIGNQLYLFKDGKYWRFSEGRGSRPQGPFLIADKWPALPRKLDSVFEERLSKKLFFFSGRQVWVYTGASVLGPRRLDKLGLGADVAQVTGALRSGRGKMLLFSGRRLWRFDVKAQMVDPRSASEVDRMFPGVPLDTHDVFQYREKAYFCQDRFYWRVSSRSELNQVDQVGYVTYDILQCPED

Molecule: MMP-2 (gelatinase 72 kD, Boehringer Mannheim), activated with p-aminophenyl mercuric acid
cleavage followed by HPLC [1]: confirmed by HPLC showing only cleavage of the former but not the latter
cleavage followed by HPLC [2]: confirmed by HPLC showing only cleavage of the former but not the latter

NIRF signal after addition of thrombin [3]: 1 fold
Molecule: control probe (PGC graft copolymer carrying Cy5.5-labelled thrombin control peptide)

Molecule: thrombin
enzymatic assay, cleavage followed by HPLC [4]: the peptide was recognized by thrombin and cleaved into two major products
enzymatic assay, cleavage followed by HPLC [5]: there was no cleavage when the serine at P1′ position was replaced by a proline residue

Molecule: trypsin
fluorescence signal increase upon activation (trypsin cleavage of the backbone) [6]: Maximum fluorescence recovery was obtained at 20% loading (15-fold fluorescence signal increase upon activation)

fluorescence increase in vitro [7]: < 850%
relative fluorescence increase at equimolar conditions (scaled to active MMP-2 set to 100%) [8]: 28%
relative fluorescence increase at equimolar conditions (scaled to active MMP-2 set to 100%) [9]: 19%
fluorescence activation (7 pmole enzyme, 10 pmole probe, 10 minutes, 37°) [10]: 4.7 AU
relative fluorescence increase at equimolar conditions (scaled to active MMP-2 set to 100%) [11]: 19%
relative fluorescence increase at equimolar conditions (scaled to active MMP-2 set to 100%) [12]: 12%
B1: MMP-2 sensitive probe (PGC graft copolymer carrying Cy5.5-labelled MMP-2 substrate peptides) (peptide, part only; not given: graft copolymer backbone and dye, part only)
peptide: {Cy5.5}-GPLGVRGK(FITC′)C-NH2
modifications: not fully specified (residue 9); printed as GPLGVRGK(FITC)C-NH2; also: about 12 peptides per PGC graft copolymer
